Data set [1] concerns M38K cells. Briefly: All optical evaluation of pharmacological compounds / cell morphology, M38K cells stably expressing Opto-mFGFR1. It counts as cell-based, human. The following applies: M38K cells; blue light (Opto-mFGFR1) or added growth factor. From the text: M38K and SPC212, two malignant pleural mesothelioma cell lines, were maintained in RPMI1640 supplemented with 10% FBS. Telomerase-immortalized microvascular hBE cells were maintained in Clonetics EGM2 MV endothelial growth medium (Lonza, Wakersville, Md.) supplemented with 5% FBS. For retrovirus generation, Opto-mFGFR1 or mCherry as control was subcloned into pQCXIP (Clontech, Mountain View, Calif.) using EcoRI and NotI restriction enzymes. Viral particles were generated in HEK293 cells by co-transfection with the helper plasmids pVSV-G and p-gag-pol-gpt. Supernatants were used to transduce M38K, SPC212 or hBE cells grown to 50% confluency in 6-well plates. Cells were selected with 0.8 μg/ml puromycin for 10 d and transgene expression was verified by immunoblotting.
10^5 M38K cells were seeded in each well of 6-well plates. After 24 h, cells were stimulated for 1 h or kept in the dark. FGF2 (Sigma) or PD166866 (Pfizer Global Research and Development, New London, Conn.) were added as indicated. After additional 24 h, cells were photographed on the Nikon Ti300 microscope. For quantification of cell morphology, all cell perimeters in randomly selected sections of phase contrast images were traced and aspect ratios (defined as length of major axis divided by length of minor axis of a fitted ellipse) calculated with ImageJ software (National Institute of Health). Greater than 50 individual values contributed to each average.
For M38K cells, cell morphology was evaluated as described above but followed by automated image analysis. Phase contrast images (typically three images from two wells) were automatically analyzed. Images were converted to greyscale, resized and divided into segments for local threshold correction (threshold was defined as most probably intensity multiplied by a constant factor of 0.85; Igor Pro, Wavemetrics, Lake Oswego, Oreg.). Cells were identified and measured in FIJI/ImageJ (Max Planck Society/National Institutes of Health; size limit: 40 to 600 pixel̂2, circularity limit: 0.01 to 1.00). Occasionally, outliers were removed manually. Typically 200 to 1800 individual values contributed to the averages of FIG. 9. For HEK293 cells, MAPK pathway activation was measured using luciferase as described above.

In data set [2] the test system is MAPK pathway. Description: Stimulation and detection of MAPK signaling, PathDetect Elk1 luciferase reporter (HEK293 cells). It counts as cell-based, human. The protocol: For light stimulation of cells, an incubator (PT2499, ExoTerra/HAGEN, Holm, Germany) was equipped with 300 light emitting diodes (JS-FS505ORGB-W30 with JS-CON-004 controller, Komerci, Ebern, Germany; λmax˜630 nm (red), λmax˜530 nm (green), λmax˜470 nm (blue), bandwidth ˜±5 nm). Light intensity was controlled with an analog dimmer and measured with a digital power meter (PM120VA, Thorlabs, Munich, Germany). Intensities at maximal output were 2.3 (red), 2.6 (green) and 3.3 (blue light) W/m^2. For stimulation over extended time periods (>8 h), an aluminium box was equipped with the same light-emitting diodes and controller and placed in an incubator with standard tissue culture conditions (see below).
HEK293 cells and CHO-K1 (American Type Culture Collection (ATCC), Manassas, Va.) cells were maintained in DMEM supplemented with 10% FBS, 100 U/ml penicilin and 0.1 mg/ml streptomycin in a humidified incubator with 5% CO2 atmosphere. After trypsination, 5×10^4 cells were seeded in each well of 96-well plates (three to four wells for each construct) coated with poly-L-ornithine (Sigma, Vienna, Austria). Either transparent plates or black clear bottom plates were used. Cells were transfected using Lipofectamine 2000 (Invitrogen/LifeTech).
Phycocyanobilin (PCB; Livchem Logistics GmbH, Frankfurt a.M., Germany) was dissolved in a dark room to a stock concentration of 10 mM in DMSO. Aliquots were stored in the dark at −20° C. Prior to experiments, cells were incubated with 50 μM PCB overnight in reduced serum starve medium at 37° C. PCB could also be applied to applied to living animals as it is non-toxic even in high doses (0.17% of diet or 10 mg/kg) (McCarty (2007).
Activation of the MAPK pathway was assayed with the PathDetect Elk1 trans-Reporting System (Agilent) consisting of an Elk1 phosphorylation-dependent trans-activator and a luciferase-based trans-reporter. Cells were transfected with 213.3 ng total DNA per well (receptor, trans-activator and trans-reporter at ratio of 1:3:60 or 1:30:600) using Lipofectamine 2000. Six h after transfection medium was replaced with CO2-independent reduced serum starve medium (Gibco/Life Technologies; supplemented with 0.5% FBS, 2 mM L-Glutamine, 100 U/ml penicilin and 0.1 mg/ml streptomycin) for 18 h at 37° C. Cells were transferred and were either kept under constant illumination for 8 h or were protected from light. Chemical stimulation of imFGFR1 followed the same procedure, except that 10 nM AP20187 ((Clackson 1998); ARIAD Pharmaceuticals, Cambridge, Mass.) were added before transfer to the stimulation incubator. After incubation, plates were washed once with PBS and luciferase was detected with standard, off-the-shelf reagents. These were either Luciferase 1000 Assay System (Promega, Mannheim, Germany) in combination with a microplate reader equipped with an injector (Tecan Infinite 200 Pro, Maennedorf, Switzerland), or ONE-Glo Assay System (Promega) in combination with a microplate reader not equipped with an injector (BioTek Synergy H1). These assay systems provide equivalent results.
(In general: A reporter such as luciferase makes a cellular process visible.)

In data set [3] the test system is hBE cells. Description: In vitro angiogenesis (sprouting) assay (hBE cells). It is filed as cell-based. The note with it: hBE cell spheroids, FIGS. 7b and c. The procedure:
For spheroid generation, hBE cells were suspended as hanging drops (450 cells in a 25 μl drop) in M199 medium (Sigma) supplemented with 10% FBS, L-glutamine, 2.2 g/I NaHCO3 and 20% methylcellulose (Sigma) over night in a standard tissue culture incubator. The following day, spheroids were washed in PBS containing 10% FBS, centrifuged, resuspended in Methocel/20% FBS, mixed (1:1) with neutralized rat-tail collagen and seeded into non-adhesive 24-well plates (Greiner Bio-one, Kremsmünster, Austria). After solidification of the collagen, VEGFA (30 ng/ml) or PD166866 (10 μM) were added. Plates were stimulated with light for 5 min every 20 min for 10 h or kept in the dark. After stimulation, 1 ml of 8% paraformaldehyde was added to each well and spheroids were photographed on the Nikon microscope. Cumulative sprout lengths per sphere from at least 8 spheroids per group were measured (ImageJ).

B1: Opto-mFGFR1: chimeric receptor of mFGFR1 intracellular domain and VfAU1-LOV, SEQ ID NO: 58 (protein)
chain: MGSSKSKPKDPSQRLDMKSGTKKSDFHSQMAVHKLAKSIPLRRQVTVSADSSASMNSGVLLVRPSRLSSSGTPMLAGVSEYELPEDPRWELPRDRLVLGKPLGEGCFGQVVLAEAIGLDKDKPNRVTKVAVKMLKSDATEKDLSDLISEMEMMKMIGKHKNIINLLGACTQDGPLYVIVEYASKGNLREYLQARRPPGLEYCYNPSHNPEEQLSSKDLVSCAYQVARGMEYLASKKCIHRDLAARNVLVTEDNVMKIADFGLARDIHHIDYYKKTTNGRLPVKWMAPEALFDRIYTHQSDVWSFGVLLWEIFTLGGSPYPGVPVEELFKLLKEGHRMDKPSNCTNELYMMMRDCWHAVPSQRPTFKQLVEDLDRIVALTSNQEYLDLSIPLDQYSPSFPDTRSSTCSSGEDSVFSHEPLPEEPCLPRHPTQLANSGLKRRVETGPDYSLVKALQMAQQNFVITDASLPDNPIVYASRGFLTLTGYSLDQILGRNCRFLQGPETDPRAVDKIRNAITKGVDTSVCLLNYRQDGTTFWNLFFVAGLRDSKGNIVNYVGVQSKVSEDYAKLLVNEQNIEYKGVRTSNMLRRKTGGSGVDYPYDVPDYALD
modifications: mFGFR1-VfAU1-LOV
Regarding B1, the Cell morphology response entry in data set [1] is given as “EMT-like morphological alterations”. Also, the “MAPK pathway activation in response to blue light” value in data set [2] (HEK293 cells expressing the fusion protein (LOV domain fused to RTK intracellular domain), ~3 μW/mm^2) was “activated the MAPK pathway similarly to imFGFR1”. Besides, the “MAPK pathway activation in response to green light or red light” value in data set [2] (HEK293 cells, control experiment) is on record as “no effect”. In addition, in data set [2] (I472V, HEK293 cells, FIG. 5c), the “Activation by blue light after reducing the lifetime of VfAU1-LOV ~8-fold by mutation” value is recorded as “reduces Opto-mFGFR1 activation”. For the same molecule, the “MAPK pathway activation in response to blue light after loss of kinase activity” value in data set [2] (kinase dead (Y271F, Y272F), HEK293 cells) was “no effect”. In addition, the “Blue light intensity at which activated” value in data set [2] (low intensity blue light) is reported as around 3 μW/mm^2. For the same molecule, the “Morphological alterations (sprouting) upon blue light illumination” value in data set [3] is “induced morphological alterations”.

Source of the values: patent US20160326219A1, “OPTICALLY ACTIVATED RECEPTORS” (IST AUSTRIA (INSTITUTE OF SCIENCE AND TECHNOLOGY AUSTRIA), priority 2013, published 2016).
